Results: patent US20160220669A1

Assays:
Experiment in all cases: cell-based or functional assay
[1] = biological target: human wildtype CSF-1R (full-length) (human) (UniProt P07333)
[2] = biological target: CSF-1R of cynomolgous monocytes (cynomolgous)
[3] = biological target: human mutant CSF-1R L301S Y969F (human) (UniProt P07333)

% inhibition 10 µg/ml antibody concentration (BeWo cells, CSF-1 induced growth) [1] [%] | Substance | wtCSF-1R IC30 (cell viability, CellTiterGlo, 3D culture) [1] [µg/mL] | wtCSF-1R IC50 (cell viability, CellTiterGlo, 3D culture) [1] [µg/mL] | % survival (cynomolgous monocytes with huCSF-1, 5 µg/ml antibody) [2] [%] | Mutant CSF-1R IC30 (cell viability, CellTiterGlo, 3D culture) [3] [µg/mL] | Mutant CSF-1R IC50 (cell viability, CellTiterGlo, 3D culture) [3] [µg/mL]
39 | Anti CSF-1R SC 2-4A5 (Santa Cruz Biotechnology, US) (antibody) | 16.6 | 10 | 31 | 2.56 | 10
– | goat polyclonal anti-CSF-1R antibody ab10676 (abcam) | 14.2 | – | – | > 20 | –
